Test results published in the supplement of paper PMC10219994.
± gives the standard deviation of the averaged measurements.

B1: library; a variant is named by its letters at N, in order (parent)
chain: GAGACCGCAACTGAAAAGTTGTGGNNNNNATAGTGAGTCGCTGCCTGCAAAGACACAACT

Variants of: B1
Assay: ligation selection enrichment (abundance after / before one-round selection) (fold); higher = more template-directed ligation activity
Conditions: with T7Psub CACGGAUGCUAAUACGACUCACUAUA; MgCl2 25 mM; 42 °C; 4 h; pH 8.5
In short: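 In each of two independent experiments, 6 μM RNA substrate was reacted for 4 h at 42 °C with 0.75 μM of a T7-transcribed RNA ligase library randomized at five core positions, in buffer containing 50 mM EPPS pH 8.5 and 25 mM MgCl2. Only reads scoring ≥30 in quality at all randomized positions were counted after MiSeq sequencing. Each enrichment value is the ratio of abundance after ligation to abundance before ligation.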
Variant TAATC has a ligation selection enrichment of 0.111 ± 0.048. TAATT showed a ligation selection enrichment of 0.211 ± 0.098. In the case of CAAAC, the ligation selection enrichment is reported as 0.135 ± 0.028. With TCAGG the ligation selection enrichment was 0.337 ± 0.062. TCAGC gave a ligation selection enrichment of 0.153 ± 0.017. Variant TCTGT has a ligation selection enrichment of 0.0815 ± 0.058. In the case of AGCCC, the ligation selection enrichment is reported as 0.167 ± 0.05. With AGCCG the ligation selection enrichment was 0.709 ± 0.025. With AGCCA the ligation selection enrichment was 0.161 ± 0.018. In the case of ATTAA, the ligation selection enrichment is reported as 0.524 ± 0.12. With CTTGT the ligation selection enrichment was 0.413 ± 0.078. CACTG gave a ligation selection enrichment of 0.286 ± 0.0061. In the case of CGCAA, the ligation selection enrichment is reported as 0.29 ± 0.03. For CTCCG, the ligation selection enrichment was 0.347 ± 0.032. CTCCT showed a ligation selection enrichment of 0.503 ± 0.14. Variant GTCCT has a ligation selection enrichment of 0.266 ± 0.14. Work on GAAGT yielded a ligation selection enrichment of 0.121 ± 0.06. For CGTCT, the ligation selection enrichment was 0.522 ± 0.15. In the case of GGGTT, the ligation selection enrichment is reported as 0.318 ± 0.011. In the case of GGGTG, the ligation selection enrichment is reported as 0.317 ± 0.033. CAGCC was tested, and the ligation selection enrichment was 0.14 ± 0.0077. CAGCA was tested, and the ligation selection enrichment was 0.206 ± 0.024. GCCAA gave a ligation selection enrichment of 0.222 ± 0.045. GCCAT gave a ligation selection enrichment of 1.25 ± 0.34. GCCAC showed a ligation selection enrichment of 0.176 ± 0.031. For TATTG, the ligation selection enrichment was 2.17 ± 0.33. For TATTT, the ligation selection enrichment was 0.402 ± 0.22. For GTTTT, the ligation selection enrichment was 0.277 ± 0.048. For GTTTA, the ligation selection enrichment was 0.446 ± 0.026. TGGCC gave a ligation selection enrichment of 0.286 ± 0.041. In the case of GAAAA, the ligation selection enrichment is reported as 0.135 ± 0.02. For GAAAT, the ligation selection enrichment was 0.55 ± 0.2. CTGCG showed a ligation selection enrichment of 0.5 ± 0.22. Work on GAGTA yielded a ligation selection enrichment of 0.27 ± 0.053. With GAGTT the ligation selection enrichment was 0.235 ± 0.074. ACTAA showed a ligation selection enrichment of 0.168 ± 0.031. For TAGGC, the ligation selection enrichment was 0.218 ± 0.0035. In the case of TATCC, the ligation selection enrichment is reported as 0.323 ± 0.051. With TATCT the ligation selection enrichment was 0.379 ± 0.13. Work on TTGCG yielded a ligation selection enrichment of 0.391 ± 0.012. ACCGG gave a ligation selection enrichment of 0.409 ± 0.0084. ACCGT gave a ligation selection enrichment of 0.232 ± 0.081. GGGAC showed a ligation selection enrichment of 30.7 ± 5.3. For CGGGG, the ligation selection enrichment was 0.165 ± 0.043. In the case of CCCCC, the ligation selection enrichment is reported as 0.199 ± 0.004. In the case of CCCCT, the ligation selection enrichment is reported as 0.419 ± 0.21. CCGAA was tested, and the ligation selection enrichment was 0.831 ± 0.069. CCGAG was tested, and the ligation selection enrichment was 0.853 ± 0.037. GGCTC was tested, and the ligation selection enrichment was 0.149 ± 0.0062. GGCTT was tested, and the ligation selection enrichment was 0.164 ± 0.12. In the case of GGCTA, the ligation selection enrichment is reported as 0.228 ± 0.037. For GGCTG, the ligation selection enrichment was 0.393 ± 0.032. TGACA showed a ligation selection enrichment of 0.19 ± 0.052. Work on TGACG yielded a ligation selection enrichment of 0.49 ± 0.13. For TCCCC, the ligation selection enrichment was 0.279 ± 0.026. Variant GCAGA has a ligation selection enrichment of 0.363 ± 0.026. GCAGT gave a ligation selection enrichment of 0.0918 ± 0.00069. With TTAGC the ligation selection enrichment was 0.139 ± 0.035. For TTAGG, the ligation selection enrichment was 0.306 ± 0.061. In the case of TTAGT, the ligation selection enrichment is reported as 0.265 ± 0.074. TCACG was tested, and the ligation selection enrichment was 0.341 ± 0.018. ATAGA was tested, and the ligation selection enrichment was 0.543 ± 0.062. In the case of ATAGG, the ligation selection enrichment is reported as 0.3 ± 0.012. With ATCCC the ligation selection enrichment was 0.168 ± 0.049. AGGCT was tested, and the ligation selection enrichment was 0.587 ± 0.3. AGGCA gave a ligation selection enrichment of 0.255 ± 0.066. AAACA was tested, and the ligation selection enrichment was 0.177 ± 0.013. Variant CCACG has a ligation selection enrichment of 0.415 ± 0.075. Work on ACGTC yielded a ligation selection enrichment of 0.172 ± 0.045. ACGTA was tested, and the ligation selection enrichment was 0.221 ± 0.0031. CACAG showed a ligation selection enrichment of 0.134 ± 0.035. With CGTGA the ligation selection enrichment was 0.58 ± 0.047. Work on CGTGG yielded a ligation selection enrichment of 0.261 ± 0.044. Work on GGTGA yielded a ligation selection enrichment of 0.641 ± 0.064. CTATA gave a ligation selection enrichment of 0.148 ± 0.068. In the case of ATTCG, the ligation selection enrichment is reported as 3.01 ± 0.51. In the case of ATTCA, the ligation selection enrichment is reported as 0.611 ± 0.08. Work on ATTCC yielded a ligation selection enrichment of 0.246 ± 0.02. Work on GCGTA yielded a ligation selection enrichment of 0.332 ± 0.038. TGCAC gave a ligation selection enrichment of 0.235 ± 0.059. Work on TGCAT yielded a ligation selection enrichment of 3.27 ± 0.44. Work on TGCAG yielded a ligation selection enrichment of 0.216 ± 0.0033. For GCTGA, the ligation selection enrichment was 0.315 ± 0.015. AGCTA gave a ligation selection enrichment of 0.209 ± 0.011. Variant TGTCA has a ligation selection enrichment of 0.325 ± 0.025. CATTT gave a ligation selection enrichment of 0.539 ± 0.13. CTGGC showed a ligation selection enrichment of 0.135 ± 0.021. TGGAC was tested, and the ligation selection enrichment was 24.7 ± 2.8. Work on TTCTG yielded a ligation selection enrichment of 0.954 ± 0.089. TTCTA showed a ligation selection enrichment of 0.183 ± 0.035. With GCTCA the ligation selection enrichment was 0.244 ± 0.1. For TCGAT, the ligation selection enrichment was 13.3 ± 3.8. TCGAA gave a ligation selection enrichment of 0.975 ± 0.19. In the case of TGGTC, the ligation selection enrichment is reported as 0.198 ± 0.019. Work on CCATT yielded a ligation selection enrichment of 0.223 ± 0.041. Work on GTATT yielded a ligation selection enrichment of 0.236 ± 0.12. Work on AAAAG yielded a ligation selection enrichment of 0.226 ± 0.025. TCTTT gave a ligation selection enrichment of 0.193 ± 0.18. Variant TCTTG has a ligation selection enrichment of 0.678 ± 0.067. AAGCA was tested, and the ligation selection enrichment was 0.236 ± 0.065. Work on AAGCG yielded a ligation selection enrichment of 1.09 ± 0.27. In the case of AAGGT, the ligation selection enrichment is reported as 0.203 ± 0.15. With GACCA the ligation selection enrichment was 0.239 ± 0.067. Variant GACCT has a ligation selection enrichment of 0.584 ± 0.26. AATGC showed a ligation selection enrichment of 0.198 ± 0.015. With CGCCA the ligation selection enrichment was 0.146 ± 0.048. CGCCT showed a ligation selection enrichment of 0.779 ± 0.21. ATCAA showed a ligation selection enrichment of 0.518 ± 0.024. Work on ATCAT yielded a ligation selection enrichment of 0.391 ± 0.082. ATCAG was tested, and the ligation selection enrichment was 0.722 ± 0.0083. AACAA gave a ligation selection enrichment of 0.209 ± 0.018. Variant CCAAT has a ligation selection enrichment of 3.42 ± 0.96. For GACTG, the ligation selection enrichment was 0.762 ± 0.055. CTGAT showed a ligation selection enrichment of 22 ± 5.4. AGCGG was tested, and the ligation selection enrichment was 0.213 ± 0.012. CCCGG gave a ligation selection enrichment of 0.327 ± 0.049. Work on CCCGC yielded a ligation selection enrichment of 0.163 ± 0.053. For ACCAA, the ligation selection enrichment was 0.144 ± 0.0063. Variant ACCAT has a ligation selection enrichment of 0.866 ± 0.31. CTTTG showed a ligation selection enrichment of 1.41 ± 0.7. TGTAC gave a ligation selection enrichment of 0.277 ± 0.037. TGTAA showed a ligation selection enrichment of 0.267 ± 0.021. TGTAG showed a ligation selection enrichment of 0.307 ± 0.076. GGGCA gave a ligation selection enrichment of 0.298 ± 0.033. TTCCT was tested, and the ligation selection enrichment was 0.443 ± 0.21. For CGTAT, the ligation selection enrichment was 4.81 ± 0.52. CGTAA gave a ligation selection enrichment of 0.311 ± 0.023. For CCCAG, the ligation selection enrichment was 0.145 ± 0.0045. CCCAA was tested, and the ligation selection enrichment was 0.134 ± 0.007. Variant CTTAC has a ligation selection enrichment of 0.153 ± 0.015. CTTCC gave a ligation selection enrichment of 0.27 ± 0.03. CTTCT was tested, and the ligation selection enrichment was 0.681 ± 0.22. Work on CCTTA yielded a ligation selection enrichment of 0.159 ± 0.004. With CTACT the ligation selection enrichment was 0.785 ± 0.19. ATATC showed a ligation selection enrichment of 0.177 ± 0.029. Work on ATATG yielded a ligation selection enrichment of 1.01 ± 0.061. AAGTT was tested, and the ligation selection enrichment was 0.257 ± 0.055. AAGTA gave a ligation selection enrichment of 0.24 ± 0.059. AAGTG gave a ligation selection enrichment of 0.294 ± 0.021. Work on CGTTT yielded a ligation selection enrichment of 0.379 ± 0.0055. Work on CGTTG yielded a ligation selection enrichment of 2.11 ± 0.56. CGTTC gave a ligation selection enrichment of 0.124 ± 0.0021. GAGAA was tested, and the ligation selection enrichment was 0.508 ± 0.036. In the case of TACTA, the ligation selection enrichment is reported as 0.168 ± 0.08. TACTT showed a ligation selection enrichment of 0.0933 ± 0.018. Work on ACCCA yielded a ligation selection enrichment of 0.152 ± 0.013. ACCCT gave a ligation selection enrichment of 0.379 ± 0.15. Work on ACCCG yielded a ligation selection enrichment of 0.752 ± 0.054. Variant TTTCG has a ligation selection enrichment of 0.632 ± 0.068. For TTTCC, the ligation selection enrichment was 0.258 ± 0.0071. Work on TTTCT yielded a ligation selection enrichment of 0.249 ± 0.052. With CAAGT the ligation selection enrichment was 0.157 ± 0.079. CAAGC showed a ligation selection enrichment of 0.137 ± 0.042. Work on CATCC yielded a ligation selection enrichment of 0.247 ± 0.012. With CCGTC the ligation selection enrichment was 0.178 ± 0.022. In the case of CGGTG, the ligation selection enrichment is reported as 0.24 ± 0.069. ACGAT showed a ligation selection enrichment of 16.5 ± 2.7. Variant ACGAC has a ligation selection enrichment of 1.41 ± 0.032. Work on ACGAG yielded a ligation selection enrichment of 0.745 ± 0.13. With TGCTA the ligation selection enrichment was 0.17 ± 0.012. GCCTG gave a ligation selection enrichment of 0.624 ± 0.06. Variant GCCTA has a ligation selection enrichment of 0.198 ± 0.017. Work on CAGAT yielded a ligation selection enrichment of 9.36 ± 2. CAGAC showed a ligation selection enrichment of 0.374 ± 0.044. Variant ATGTT has a ligation selection enrichment of 0.166 ± 0.064. GTGAA gave a ligation selection enrichment of 1.7381 ± 0.00037. Variant TGAGA has a ligation selection enrichment of 0.376 ± 0.039.
